Here are results for one molecule from patent US20130116201, “USE OF PEPTIDES AS TRANSPORTERS […] FOR THE INTERNALIZATION OF MOLECULES OF […] INTO TARGET CELLS” (UNIVERSITE JOSEPH FOURIER, published 2013).

The target in one data set is ZEBRA Z6 (Epstein-Barr virus, UniProt P03206 SEQ:1-75). Nature of the data set: EMSA; efficiency almost equal to full-length ZEBRA; poly(dI-dC), 4 C. The settings on record: tags: N-terminal His6 (pET15b); chain copies: 2; label: biotin. For orientation: Mobility shift assays separate free from complexed probe on a gel.
The target of a further data set is ZEBRA Z4 (Epstein-Barr virus, UniProt P03206 SEQ:1-105). The description is as above. The settings on record: tags: N-terminal His6 (pET15b); chain copies: 2; label: biotin.
The target in a further data set is ZEBRA Z3 (Epstein-Barr virus, UniProt P03206 P03206:1-140). Put plainly: EMSA; neither DIM nor DB domain. The settings on record: tags: N-terminal His6 (pET15b); label: biotin.
The next data set addresses ZEBRA Z2 (Epstein-Barr virus, UniProt P03206 P03206:1-170). Nature of the data set: EMSA; neither DIM nor DB domain. To be noted: tags: N-terminal His6 (pET15b); label: biotin.
Another data set has as its target ZEBRA Z8 (Epstein-Barr virus, UniProt P03206 P03206:195-245). Nature of the data set: EMSA; dimerization domain without DNA-binding domain. The settings on record: tags: N-terminal His6 (pET15b); label: biotin.
The target of the next data set is ZEBRA full-length (Z-FL) (Epstein-Barr virus, UniProt P03206 P03206:1-245). Put plainly: EMSA; poly(dI-dC), 1 mM DTT, 4 C. To be noted: tags: N-terminal His6 (pET15b); chain copies: 2; label: biotin.
The target in another data set is T1, ZEBRA Z7 (Epstein-Barr virus, UniProt P03206 P03206:170-195).
T1 chain: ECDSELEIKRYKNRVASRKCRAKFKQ
Put plainly: EMSA; no dimerization domain. To be noted: tags: N-terminal His6 (pET15b); label: biotin.

A further data set addresses ZEBRA Z5 (Epstein-Barr virus, UniProt P03206 P03206:140-195). Nature of the data set: EMSA; no dimerization domain. The settings on record: tags: N-terminal His6 (pET15b); label: biotin.

Chain of ZEBRA Z2 (P03206 1-170, one chain of several): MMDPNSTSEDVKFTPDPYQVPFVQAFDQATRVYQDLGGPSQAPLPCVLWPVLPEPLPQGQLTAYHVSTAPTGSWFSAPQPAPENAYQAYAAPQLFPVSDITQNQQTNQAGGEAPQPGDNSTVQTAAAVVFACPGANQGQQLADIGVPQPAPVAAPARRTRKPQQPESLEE
Chain of ZEBRA Z4 (P03206 141-245): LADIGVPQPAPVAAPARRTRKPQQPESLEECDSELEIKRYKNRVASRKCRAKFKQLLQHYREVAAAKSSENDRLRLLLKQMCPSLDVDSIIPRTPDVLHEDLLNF
Chain of ZEBRA Z6 (P03206 171-245): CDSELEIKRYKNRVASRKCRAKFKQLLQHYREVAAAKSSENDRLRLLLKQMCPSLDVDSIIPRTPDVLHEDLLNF
Chain of ZEBRA Z8 (P03206 195-245, one chain of several): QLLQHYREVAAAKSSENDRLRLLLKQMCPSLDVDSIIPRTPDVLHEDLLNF
Chain of ZEBRA full-length (Z-FL) (P03206 whole entry, one chain of several): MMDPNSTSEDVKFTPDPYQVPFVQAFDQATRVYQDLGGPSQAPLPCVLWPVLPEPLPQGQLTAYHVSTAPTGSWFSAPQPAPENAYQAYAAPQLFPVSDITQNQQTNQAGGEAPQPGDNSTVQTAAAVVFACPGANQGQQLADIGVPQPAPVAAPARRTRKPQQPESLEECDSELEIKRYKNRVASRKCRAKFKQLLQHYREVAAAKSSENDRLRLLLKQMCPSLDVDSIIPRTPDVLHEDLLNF
Chain of ZEBRA Z3 (P03206 1-140, one chain of several): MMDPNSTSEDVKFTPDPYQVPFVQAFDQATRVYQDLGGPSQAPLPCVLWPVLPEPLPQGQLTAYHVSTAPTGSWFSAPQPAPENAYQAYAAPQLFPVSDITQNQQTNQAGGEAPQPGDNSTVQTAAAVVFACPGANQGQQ

B1: AP-1 probe (dsDNA)
DNA 1: AGCACTGACTCATGAAGT
DNA 2: TACTTCATGAGTCAGTGCT
As for B1, the binding result was “binds” in the data set with ZEBRA Z6; “binds” with ZEBRA Z4; “no binding” with ZEBRA Z3; “no binding” with ZEBRA Z2; “no binding” with ZEBRA Z8; “binds” with ZEBRA full-length (Z-FL). Also, the binding result with ZEBRA Z7 and with ZEBRA Z5 was “no binding” throughout.
